Experimental findings from publication PMC8216470 are described below.

Experiment in all cases: MST
Common to all, as to details: MST with Cy5-labelled tRNA; buffer, salt, pH and temperature not in the material (protein storage: 10 mM Tris-HCl pH 8.0, 200 mM NaCl, 0.5 mM TCEP)

Data set [1] has as its system ADAT2;ADAT3 WT (Mus musculus;Mus musculus).
Data set [2] relates to ADAT2;ADAT3-Δloop (Mus musculus;Mus musculus).
Data set [3] deals with ADAT2;ADAT3-ΔN (Mus musculus;Mus musculus).
The subject of another data set is TadA (Escherichia coli).
For data set [4], the system named is ADAT2;ADAT3-V128I (Mus musculus;Mus musculus).
For data set [5], the system named is ADAT2;ADAT3-V128L (Mus musculus;Mus musculus).
The subject of data set [6] is ADAT2;ADAT3-V128M (Mus musculus;Mus musculus).

The Kd is the free concentration of one partner at which half of the binding sites on the other are occupied at equilibrium, for simple one-to-one binding. For tRNAAla(AGC), the results for the Kd in data set [1] and in data set [2] were 8 µM and 6.7 µM, respectively.

For the substance tRNAGly(CCC), the Kd stood at 3 µM in data set [1] and 35.8 µM in data set [3].

Take tRNAArg(ACG): the Kd in data set [1] came to 3.7 µM; in data set [2] it was 6.5 µM; with TadA (Escherichia coli), 6.6 µM.

Take tRNAVal(AAC): the Kd in data set [1] worked out at 3.5 µM; in data set [4], 3.3 µM; in data set [5] it was 4.2 µM; in data set [6] it was 2.5 µM; in data set [3] it was 44.5 µM; in data set [2], 6.7 µM.
